In PMC6202052, “The ectodomains determine ligand function in vivo and selectivity of DLL1 and DLL4 toward NOTCH1 and NOTCH2 in vitro” (eLife, 2018):

Tests used:
[1] = biological target: T1, biotinylated human N1 ectodomain fragment containing EGF repeats 6–15 (human, UniProt P46531 216-604, biotin on the Avi tag (BirA co-expression)); test: BLI; BLItz instrument; biotinylated Notch1 fragment loaded on streptavidin biosensors, dipped into ligand samples of varying concentration until equilibrium; HBS-P buffer with 0.005% surfactant P20 and 5 mM CaCl2; equilibrium curves fitted with a one site specific binding model; conditions: both partners purified
T1 construct: human NOTCH1, EGF repeats 6–15 (amino acids 216–604); also called hN1; N1 fragment; source: Expi293F, transiently transfected (co-transfected with BirA and POFUT1), purified from the medium (Ni-NTA, Superdex 200); not shown: Avi (biotinylation) tag, C-terminal, kept

N2(1–15)-Fc = biological target: T2, N2(1–15)-Fc (human, UniProt Q04721 26-605); test: BLI; BLItz instrument; N2(1–15)-Fc captured on protein A biosensors, ligand samples of varying concentration; HBS-P buffer with 0.005% surfactant P20 and 5 mM CaCl2; equilibrium curves fitted with a one site specific binding model; conditions: both partners purified
T2 construct: human NOTCH2, printed as N2(1–15); no catalogue number is printed; Captured on protein A sensor tips by its Fc; also called human N2; human NOTCH2; source: bought: R and D systems, used without further purification
T2 sequence (looked up): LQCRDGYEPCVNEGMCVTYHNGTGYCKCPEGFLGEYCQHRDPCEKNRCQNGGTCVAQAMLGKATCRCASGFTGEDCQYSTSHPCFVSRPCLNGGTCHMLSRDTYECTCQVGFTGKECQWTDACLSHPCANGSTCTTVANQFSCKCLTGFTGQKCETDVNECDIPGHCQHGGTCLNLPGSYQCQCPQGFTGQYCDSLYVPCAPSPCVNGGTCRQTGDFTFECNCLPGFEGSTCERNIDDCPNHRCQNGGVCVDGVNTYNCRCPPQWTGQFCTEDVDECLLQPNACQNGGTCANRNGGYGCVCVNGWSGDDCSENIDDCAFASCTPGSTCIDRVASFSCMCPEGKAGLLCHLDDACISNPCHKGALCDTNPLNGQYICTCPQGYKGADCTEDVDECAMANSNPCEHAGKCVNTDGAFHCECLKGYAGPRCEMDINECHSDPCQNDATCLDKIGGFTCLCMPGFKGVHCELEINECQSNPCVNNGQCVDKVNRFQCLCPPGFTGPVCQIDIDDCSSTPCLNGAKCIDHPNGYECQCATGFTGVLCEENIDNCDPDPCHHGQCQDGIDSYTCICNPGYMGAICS

Row | Binder | Kd [1] [nM] | Kd (N2(1–15)-Fc) [nM]
1 | mDLL1 fragment (mouse DLL1 from the N-terminus up to and including EGF5) (domain or fragment, mouse DLL1, N-terminus up to and including EGF5; also called DLL1 (from the N-terminus through EGF-repeat 5); D1N-E5; source: Expi293F, transiently transfected, purified from the medium (Ni-NTA, Superdex 200)) not shown | 1560 | –
2 | D4N-E5 (DLL4 from the N-terminus through EGF-repeat 5) as used in the N2 binding experiment (domain or fragment, UniProt Q9NR61 27-400, looked up, DLL4, N-terminus through EGF5; it may be the mouse fragment m2); The sentence names hD1N-E5 as human but prints D4N-E5 without a species prefix; source: Expi293F, transiently transfected, purified from the medium (Ni-NTA, Superdex 200)) SGVFQLQLQEFINERGVLASGRPCEPGCRTFFRVCLKHFQAVVSPGPCTFGTVSTPVLGTNSFAVRDDSSGGGRNPLQLPFNFTWPGTFSLIIEAWHAPGDDLRPEALPPDALISKIAIQGSLAVGQNWLLDEQTSTLTRLRYSYRVICSDNYYGDNCSRLCKKRNDHFGHYVCQPDGNLSCLPGWTGEYCQQPICLSGCHEQNGYCSKPAECLCRPGWQGRLCNECIPHNGCRHGTCSTPWQCTCDEGWGGLFCDQDLNYCTHHSPCKNGATCSNSGQRSYTCTCRPGYTGVDCELELSECDSNPCRNGGSCKDQEDGYHCLCPPGYYGLHCEHSTLSCADSPCFNGGSCRERNQGANYACECPPNFTGSNCE | – | 1280
3 | mD4N-E5 (mouse DLL4 from the N-terminus up to and including EGF5) (domain or fragment, UniProt Q9JI71 27-401, looked up, mouse DLL4, N-terminus up to and including EGF5; also called DLL4 (from the N-terminus through EGF-repeat 5); pLexM-D4N-E5-Avi-His; source: Expi293F, transiently transfected, purified from the medium (Ni-NTA, Superdex 200)) GSGIFQLRLQEFVNQRGMLANGQSCEPGCRTFFRICLKHFQATFSEGPCTFGNVSTPVLGTNSFVVRDKNSGSGRNPLQLPFNFTWPGTFSLNIQAWHTPGDDLRPETSPGNSLISQIIIQGSLAVGKIWRTDEQNDTLTRLSYSYRVICSDNYYGESCSRLCKKRDDHFGHYECQPDGSLSCLPGWTGKYCDQPICLSGCHEQNGYCSKPDECICRPGWQGRLCNECIPHNGCRHGTCSIPWQCACDEGWGGLFCDQDLNYCTHHSPCKNGSTCSNSGPKGYTCTCLPGYTGEHCELGLSKCASNPCRNGGSCKDQENSYHCLCPPGYYGQHCEHSTLTCADSPCFNGGSCRERNQGSSYACECPPNFTGSNCE | 430 | –
4 | hD1N-E5 (human DLL1 from the N-terminus through EGF-repeat 5) (domain or fragment, UniProt O00548 18-402, looked up, human DLL1, N-terminus through EGF5; source: Expi293F, transiently transfected, purified from the medium (Ni-NTA, Superdex 200)) QVWSSGVFELKLQEFVNKKGLLGNRNCCRGGAGPPPCACRTFFRVCLKHYQASVSPEPPCTYGSAVTPVLGVDSFSLPDGGGADSAFSNPIRFPFGFTWPGTFSLIIEALHTDSPDDLATENPERLISRLATQRHLTVGEEWSQDLHSSGRTDLKYSYRFVCDEHYYGEGCSVFCRPRDDAFGHFTCGERGEKVCNPGWKGPYCTEPICLPGCDEQHGFCDKPGECKCRVGWQGRYCDECIRYPGCLHGTCQQPWQCNCQEGWGGLFCNQDLNYCTHHKPCKNGATCTNTGQGSYTCSCRPGYTGATCELGIDECDPSPCKNGGSCTDLENSYSCTCPPGFYGKICELSAMTCADGPCFNGGRCSDSPDGGYSCRCPVGYSGFNC | – | 360
